Data from US20120283184A1 (published 2012).

Assays:
[1] = molecular target: Flk-1-Fc (mouse vascular endothelial growth factor receptor-2 Fc chimera) (mouse) (UniProt P35918); assay: radioactive equilibrium binding assay, % bound at 1 nM Flk-1-Fc
[2] = molecular target: T1, Flk-1-Fc (mouse vascular endothelial growth factor receptor-2 Fc chimera) (mouse, UniProt P35918 20-762); assay: method not given
T1 construct: Purchased from R&D Systems; also called mouse VEGF-R2-Fc; not shown: Fc part of the purchased chimera

[3] = molecular target: T2, Flk-1-Fc (mouse vascular endothelial growth factor receptor-2 Fc chimera) (mouse, UniProt P35918 20-762); assay: radioactive equilibrium binding assay, % bound at 1 nM Flk-1-Fc
T2 construct: Bought from R&D Systems; also called mouse VEGFR-2-Fc; Fc part of the bought chimera not given
Description: To prepare ³⁵S-labeled binding proteins for analysis, mRNA was prepared as described above for RNA-protein fusion production but the linker ligation step was omitted. The mRNA was expressed using rabbit reticulocyte lysate translation kit (Ambion) in the presence of ³⁵S-labeled Met at 30° C. for 1 hour. Expressed protein was purified on M2-agarose Flag beads (Sigma) as described above. This procedure produced the encoded protein without the nucleic acid tail. In a direct binding assay, VEGF-R2-Fc fusions in concentrations ranging from 0 to 200 nM were added to a constant concentration of the purified protein (0.2 or 0.5 nM) and incubated at 30° C. for 1 hour in buffer B. The receptor-binder complexes were captured using Protein A magnetic beads for another 10 minutes at room temperature using a Kingfisher™ The beads were washed with six reaction volumes of buffer B. The protein was eluted from the beads with 100 μL of 0.1 M KOH. 50 μL of the reaction mixture and elution were dried onto a LumaPlate-96 (Packard) and the amount of ³⁵S on the plate was measured using a TopCount NXT instrument (Packard). The amount of fibronectin-based scaffold protein bound to the target was estimated as a percent of radioactivity eluted from Protein A magnetic beads compare to radioactivity in the reaction mixture. Nonspecific binding of fibronectin-based scaffold proteins to the beads was determined by measuring binding in the absence of KDR-Fc and represented less than 1-2% of the input. Specific binding was obtained through subtraction of nonspecific binding from total binding. Data was analyzed using the GraphPad Prizm software (GraphPad Software, Inc, San Diego, Calif.), fitted using a one site, non-linear binding equation.

Flk-1-Fc (mouse vascular endothelial growth factor receptor-2 Fc chimera) (mouse), sequence (P35918 20-762, change not shown): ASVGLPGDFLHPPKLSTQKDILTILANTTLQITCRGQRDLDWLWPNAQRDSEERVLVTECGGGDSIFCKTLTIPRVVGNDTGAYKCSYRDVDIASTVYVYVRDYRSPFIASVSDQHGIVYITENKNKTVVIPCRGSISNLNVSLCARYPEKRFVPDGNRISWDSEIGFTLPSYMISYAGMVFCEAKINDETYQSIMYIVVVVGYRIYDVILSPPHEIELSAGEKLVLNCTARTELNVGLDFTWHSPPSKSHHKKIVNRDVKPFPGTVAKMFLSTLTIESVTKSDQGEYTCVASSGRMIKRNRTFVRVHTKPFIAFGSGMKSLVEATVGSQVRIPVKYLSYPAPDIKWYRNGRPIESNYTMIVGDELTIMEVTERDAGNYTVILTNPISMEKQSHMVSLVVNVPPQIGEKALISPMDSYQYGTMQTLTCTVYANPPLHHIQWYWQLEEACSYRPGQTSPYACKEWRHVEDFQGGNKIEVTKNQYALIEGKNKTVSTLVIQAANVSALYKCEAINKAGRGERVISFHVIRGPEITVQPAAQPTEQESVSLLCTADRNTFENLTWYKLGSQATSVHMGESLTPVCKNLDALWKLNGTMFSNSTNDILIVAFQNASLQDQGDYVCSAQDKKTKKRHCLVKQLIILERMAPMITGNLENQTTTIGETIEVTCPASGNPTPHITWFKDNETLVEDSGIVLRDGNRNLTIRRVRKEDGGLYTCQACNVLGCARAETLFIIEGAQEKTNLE

B1: EGE11 (SEQ ID NO: 87) (designed binder)
chain: EVVAATPTSLLISWRHPHFPTRYYRITYGETGGNSPVQEFTVPLQPPTATISGLKPGVDYTITGYAVTMGKNDRELLTPISINYRT
[1]
  Binding to 1 nM Flk-1, %: 1%

B2: 159Q(8)L (designed binder)
chain: VSDVPRDLEVVAATPTSLLISWRHPHFPTRYYRITYGETGGNSPVQEFTVPLQPPAATISGLKPGVDYTITGYAVTMAQSGHELFTPISINYRT
notes: also called clone 159
[2]
  Kd: > 3000 nM

B3: G1 (designed binder)
chain: EVVAATPTSLLISWRHPHFPTRYYRITYGETGGNSPVQEFTVPLQPPTATISGLKPGVDYTITGYAVTEGRNGRELMVPISINYRT
notes: 10Fn3 clone, Del 1-8
[3]
  Binding to 1 nM Flk-1, %: 2%
